From patent publication US6528487B1, “Peptide inhibitors of inflammation mediated by selectins” (Centocor, Inc., priority 1991, dated 2003)
No end group written: not given here. *: point of attachment. Fmoc = O=C(OCC1c2ccccc2-c2ccccc21)*

Target: T1, GMP-140 (Homo sapiens, UniProt P16109)
T1 construct: from tissue; host or cells: human platelets (outdated platelet packs from a blood bank)
T1 sequence (P16109 42-830): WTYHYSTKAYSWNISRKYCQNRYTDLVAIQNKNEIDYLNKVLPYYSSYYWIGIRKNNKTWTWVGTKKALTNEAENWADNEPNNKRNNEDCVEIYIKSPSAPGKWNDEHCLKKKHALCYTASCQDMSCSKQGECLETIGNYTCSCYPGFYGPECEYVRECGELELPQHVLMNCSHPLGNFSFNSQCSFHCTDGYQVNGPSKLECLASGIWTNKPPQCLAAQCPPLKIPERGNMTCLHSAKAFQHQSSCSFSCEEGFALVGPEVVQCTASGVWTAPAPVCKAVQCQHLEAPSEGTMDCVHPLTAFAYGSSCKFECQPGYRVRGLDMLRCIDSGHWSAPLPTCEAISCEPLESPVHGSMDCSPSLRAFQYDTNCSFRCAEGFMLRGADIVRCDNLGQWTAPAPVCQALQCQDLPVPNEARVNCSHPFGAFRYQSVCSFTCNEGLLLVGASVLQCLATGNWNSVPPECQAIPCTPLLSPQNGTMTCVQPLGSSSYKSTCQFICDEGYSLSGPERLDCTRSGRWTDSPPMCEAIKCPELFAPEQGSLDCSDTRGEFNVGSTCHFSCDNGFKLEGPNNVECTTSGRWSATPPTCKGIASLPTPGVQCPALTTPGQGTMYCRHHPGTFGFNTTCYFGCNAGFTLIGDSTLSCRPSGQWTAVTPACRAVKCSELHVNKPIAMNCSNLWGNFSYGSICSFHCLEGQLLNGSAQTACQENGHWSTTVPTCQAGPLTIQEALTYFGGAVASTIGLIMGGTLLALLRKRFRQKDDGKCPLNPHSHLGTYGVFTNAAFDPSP
Assay: Inhibition of neutrophil binding to GMP-140 coated wells
Type: cell-based
Settings: human neutrophils, immobilized GMP-140; for inhibition at 100 µM / inhibition at 1000 µM / inhibition at 500 µM: read-out: Percent inhibition of neutrophil binding to GMP-140
From the text: Peptides can be screened for their ability to inhibit adhesion to cells, for example, neutrophil adhesion to purified GMP-140 immobilized on plastic wells, using the assay described by Geng, et al., Nature 343, 757-760 (1990).
Human neutrophils are isolated from heparinized whole blood by density gradient centrifugation on Mono-Poly resolving media, Flow laboratories. Neutrophil suspensions are greater than 98% pure and greater than 95% viable by trypan blue exclusion. For adhesion assays, neutrophils are suspended at a concentration of 2×10^6 cells/mL in Hanks' balanced salt solution containing 1.26 mM Ca^2+ and 0.81 mM Mg^2+ (HBSS, Gibco) with 5 mg/mL human serum albumin (HBSS/HSA). Adhesion assays are conducted in triplicate in 96-well microtiter plates, Corning, incubated at 4° C. overnight with 50 microliters of various protein solutions.
GMP-140 is isolated from human platelet lysates by immunoaffinity chromatography on antibody S12-Sepharose™ and ion-exchange chromatography on a Mono-Q™ column (FLPC, Pharmacia Fine Chemicals, as follows.
GMP-140 is plated at 5 micrograms/mL and the control proteins: human serum albumin (Alb), platelet glycoprotein Iib/IIIha (Iib), von Willebrand factor (vWF), fibrinogen (FIB), thrombomodulin™, gelatin (GEL) or human serum (HS), are added at 50 micrograms/mL. All wells are blocked for 2 h at 22° C. with 300 microliters HBSS containing 10 mg/mL HSA, then ashed three times with HBSS containing 0.1% Tween-20 and once with HBSS. Cells (2×10^5 per well are added to the wells and incubated at 22° C. for 20 min. The wells are then filled with HGSS/HSA, sealed with acetate tape (Dynatech), and centrifuged inverted at 150 g for 5 min. After discarding nonadherent cells and supemates, the contents of each well are solubilized with 200 microliters of 0.5% hexadecyltrimethylammonium bromide, Sigma, in 50 mM potassium phosphate, pH 6.0, and assayed for myeloperoxidase activity, Ley, et al., Blood 73, 1324-1330 (1989). The number of cells bound is derived from a standard curve of myeloperoxidase activity versus numbers of cells. Under all assay conditions, the cells release less than 5% of total myeloperoxidase and lactate dehydrogenase. Inhibition is read as a lower percent adhesion, so that a value of 5% means that 95% of the specific adhesion was inhibited.
Binding of various peptides to GMP-140 coated wells, as described above, were compared.
Binding of the peptides at various concentrations, ranging from 0.05 to 1 mM were compared.
A 5 μg/mL solution of GMP-140 in HBSS (buffer) is prepared. 50 μL is pipetted per well with the exception of three wells (A10 to A12) and the plate is stored overnight at 0° C. to 4° C. The liquids are removed by aspiration and 300 μL of 5 mg/mL human serum albumin (HSA)/HBSS is placed in the wells coated with GMP-140 plus the three non-coated wells to be used as control wells. The plate is allowed to incubate at room temperature for two hours. The HSA/HBSS solution is removed and the wells washed three times with 300 μL/well of HBSS. The third 300 μL wash of HBSS is left in each well and the plate is kept at room temperature until it is used.
Eight to ten mL of fresh human blood collected in heparinized tubes is carefully layered over 5 mL of the Mono-Poly Resolving Medium in 15 mL polypropylene centrifuge tubes. The tubes are centrifuged for 30 minutes at room temperature and 1400 to 1600 rpm. The tubes are rotated 180° and centrifuged for another 30 minutes under the same conditions. The top plasma layer and first cellular layer of leukocytes are drawn off. The second cellular layer of neutrophils is harvested (usually 2 to 3 mL per tube) and is placed in a clean 15 mL centrifuge tube. This is then underlayered with 1.5 mL of fresh resolving medium and spun at 2000 rpm for 15 minutes at room temperature. This is done to further purify the neutrophils from residual red blood cells. […]

Substance | inhibition at 100 µM (peptide concentration 0.1 mM) | inhibition at 1000 µM (peptide concentration 1.0 mM) | Percent inhibition of neutrophil binding to GMP-140 (peptide concentration 0.1 mM) | Percent inhibition of neutrophil binding to GMP-140 (peptide concentration 0.5 mM) | Percent inhibition of neutrophil binding to GMP-140 (peptide concentration 1.0 mM) | inhibition at 500 µM (peptide concentration 0.5 mM)
RKNNKTWTWVGTKKALTNEC-NH2 [Arginyl-lysyl-asparaginyl-asparaginyl-lysyl-threonyl-tryptophyl-threonyl-tryptophyl-valyl-glycyl-threonyl-lysyl-lysyl-alanyl-leucyl-threonyl-asparaginyl-glutamyl-cysteine-amide] | 9% | 47% |  |  |  | 
Ac-Arg-Lys-Asn-Asn-Lys-Thr-Trp-Thr-Trp-Val-NH2 (Ac-RKNNKTWTWV-NH2) |  |  | 35% | 50% |  | 
Arg-Glu-Asn-Asn-Lys-Thr-Trp-Thr-Trp-Val-NH2 (RENNKTWTWV-NH2) |  |  | 34% | 94% | 96% | 
RKNNKTWTWV-NH2 [RKNNKTWTWV-NH2, Arginyl-lysyl-asparaginyl-asparaginyl-lysyl-threonyl-tryptophyl-threonyl-tryptophyl-valine-amide] | 13% |  | 14% | 30% |  | 20%
RKNNGTWTWV-NH2 [RKNNGTWTWV-NH2, Arginyl-lysyl-asparaginyl-asparaginyl-glycyl-threonyl-tryptophyl-threonyl-tryptophyl-valine-amide] | 46% | 99% |  |  |  | 99%
Arg-Lys-Asn-Asn-Lys-Thr-Trp-NH2 (RKNNKTW-NH2) |  |  | 31% | 53% | 99% | 
FMOC-Asn-Asn-Lys-Thr-Trp-NH2 (Fmoc-NNKTW-NH2; SMILES C[C@@H](O)[C@H](NC(=O)[C@H](CCCCN)NC(=O)[C@H](CC(N)=O)NC(=O)[C@H](CC(N)=O)NC(=O)OCC1c2ccccc2-c2ccccc21)C(=O)N[C@@H](Cc1c[nH]c2ccccc12)C(N)=O) |  |  | 85% | 100% | 99% | 
RKVNNVWVWV-NH2 [RKVNNVWVWV-NH2, Arginyl-lysyl-valyl-asparaginyl-asparaginyl-valyl-tryptophyl-valyl-tryptophyl-valine-amide] | 94% |  |  |  |  | 102%
Arg-Lys-Asn-Asn-Lys-Thr-Trp-Thr-Trp-Glu-NH2 (RKNNKTWTWE-NH2) |  |  | 17% | 20% |  | 
RKNNKTWTWV (Synthetic inhibitory peptide) [Arginyl-lysyl-asparaginyl-asparaginyl-lysyl-threonyl-tryptophyl-hreonyl-tryptophyl-valine] |  |  | 14% |  | 35% | 
Cys-Arg-Lys-Asn-Asn-Lys-Thr-Trp-Thr-Trp-Val-NH2 (CRKNNKTWTWV-NH2) |  |  | 87% |  | 105% | 
Tyr-Lys-Asn-Asn-Lys-Thr-Trp-Thr-Trp-Val-NH2 (YKNNKTWTWV-NH2) |  |  | 9% | 98% | 104% | 
KWKWNRTNVT-NH2 [reference compound] |  |  | 0% | 0% | 0% | 
